T1: TNFR-Fc (UniProt P20333 23-257, limits assumed)
T1 construct: Printed only as TNFR-Fc; not shown: Fc part
T1 sequence (looked up): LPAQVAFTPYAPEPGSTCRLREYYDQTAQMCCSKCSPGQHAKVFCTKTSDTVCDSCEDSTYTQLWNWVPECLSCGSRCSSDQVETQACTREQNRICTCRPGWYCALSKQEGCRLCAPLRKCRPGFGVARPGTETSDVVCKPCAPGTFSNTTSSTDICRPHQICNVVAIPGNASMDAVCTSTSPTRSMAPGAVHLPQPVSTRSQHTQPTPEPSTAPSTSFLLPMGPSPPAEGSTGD

T2: human TNFR2 expressed on cells (human, UniProt P20333 23-461)
T2 construct: whole, on cells; also called hTNFR2 (cell); CHO-TNFR2
T2 sequence (looked up): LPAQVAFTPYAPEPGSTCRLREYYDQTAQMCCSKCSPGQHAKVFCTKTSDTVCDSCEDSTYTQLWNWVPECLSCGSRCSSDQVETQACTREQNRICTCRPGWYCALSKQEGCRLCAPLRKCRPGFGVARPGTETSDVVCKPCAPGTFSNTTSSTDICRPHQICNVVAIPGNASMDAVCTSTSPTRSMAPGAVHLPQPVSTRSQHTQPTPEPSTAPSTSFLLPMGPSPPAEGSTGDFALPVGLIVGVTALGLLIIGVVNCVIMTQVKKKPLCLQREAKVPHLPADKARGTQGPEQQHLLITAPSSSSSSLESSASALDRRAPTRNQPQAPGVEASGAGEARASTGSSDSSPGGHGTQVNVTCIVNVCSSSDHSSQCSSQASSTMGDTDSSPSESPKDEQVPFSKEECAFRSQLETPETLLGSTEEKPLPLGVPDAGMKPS

T3: human TNFR2-His tagged protein (soluble) (human, UniProt P20333 23-257)
T3 construct: also called hTNFR2 (soluble); soluble TNFR2-His; not shown: His tag
T3 sequence (looked up): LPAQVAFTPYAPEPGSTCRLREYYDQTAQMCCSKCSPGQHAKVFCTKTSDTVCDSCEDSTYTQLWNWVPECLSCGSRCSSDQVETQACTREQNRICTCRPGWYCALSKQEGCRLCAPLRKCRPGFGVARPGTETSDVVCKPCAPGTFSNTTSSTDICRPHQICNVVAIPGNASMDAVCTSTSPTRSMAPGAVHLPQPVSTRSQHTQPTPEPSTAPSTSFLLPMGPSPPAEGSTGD

T4: soluble mouse TNFR2 (mouse, UniProt P25119 23-258, limits assumed)
T4 sequence (looked up): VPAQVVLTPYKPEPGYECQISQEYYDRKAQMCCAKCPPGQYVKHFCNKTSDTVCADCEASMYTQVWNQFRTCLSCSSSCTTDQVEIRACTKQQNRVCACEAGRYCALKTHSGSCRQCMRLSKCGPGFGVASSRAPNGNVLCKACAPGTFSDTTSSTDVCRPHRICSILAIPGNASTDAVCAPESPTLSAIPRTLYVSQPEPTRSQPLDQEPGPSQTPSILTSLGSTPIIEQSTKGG

T5: cynomolgus TNFR2-His tagged protein (cynomolgus, UniProt A0A2K5VET2 132-366)
T5 construct: also called Cyno TNFR2; cynomolgus TNFR2 protein; not shown: His tag
T5 sequence: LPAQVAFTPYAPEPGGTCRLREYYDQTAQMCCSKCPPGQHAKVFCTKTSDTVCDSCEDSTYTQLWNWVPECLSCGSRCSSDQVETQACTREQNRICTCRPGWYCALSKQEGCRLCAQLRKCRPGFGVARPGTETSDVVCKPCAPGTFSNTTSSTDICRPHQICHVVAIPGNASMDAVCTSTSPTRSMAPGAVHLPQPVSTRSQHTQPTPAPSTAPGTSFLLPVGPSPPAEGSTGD


Assays:
[1] = target: T1, TNFR-Fc; assay: TNF-α blocking ELISA on coated TNFR-Fc
Method: (§1) In FIGS. 3A-3B, human (3A) or cynomolgus (3B) TNFR2-His tagged protein was coated on 96-well ELISA plates at 1 μg/mL and incubated overnight at 4° C. Plates were washed and blocked using 1% BSA. Antibodies were added for 1 hour at room temperature (RT), washed, and detected using anti-Human HRP. Assay was developed using TMB substrate for 3-5 minutes. In FIG. 3C, FACS binding was performed on CHO cells that were engineered to express human TNFR2. Briefly, antibodies were incubated with 200,000 cells in MACS buffer for 1 hour followed by wash and detection using anti-human IgG BV421 for 20 minutes. Samples were analyzed using Cytoflex or MACSQuant flow cytometers. In FIG. 3D, ligand blocking ELISA was performed by coating plates with 1 ug/mL TNFR-Fc overnight at 4° C. Plates were washed, blocked and antibodies were incubated for 1 hr at RT. […] Assay was developed using TMB substrate for 5-7 minutes.

[2] = target: T2, human TNFR2 expressed on cells; assay: flow cytometry on CHO cells expressing human TNFR2
Method: as §1

[3] = target: T3, human TNFR2-His tagged protein (soluble); assay: ELISA on coated human TNFR2-His
Method: as §1

[4] = target: T4, soluble mouse TNFR2; assay: binding screen on soluble mouse TNFR2 (mouse cross-reactivity)
[5] = target: T5, cynomolgus TNFR2-His tagged protein; assay: ELISA on coated cynomolgus TNFR2-His
Method: as §1

IC50 [1] [nM] | EC50 [2] [nM] | EC50 [3] [nM] | binding result [4] | EC50 [5] [nM] | Binder
4.35 | 1.32 | 0.124 | no binding | 0.0862 | chimeric antibody clone 55F6.1 (taken as rab600_23_55F6.6) (antibody, V domains shown) VH: QQQLEESGGDLVKPGASLTVTCTASGFSFTNNYYMCWVRQAPGKGLEWIGCIYPSIVGPTYYANWAKGRFTISKTSSTTVTLEMTSLTAADTATYFCVRDRYDDYGDYFNLWGPGTLVTVSS VL: DIVMTQTPASVSVPVGGTVTIKCQASQSIYNYLSWYQQKPGQPPKRLIYYASTLASGVPSRFSGSGSGTEFTLTISDLECADAATYYCQSNSGVNGNRYGNAFGGGTEVVVK
2.97 | 0.321 | 0.149 | no binding | 0.0763 | chimeric antibody clone 28B7.3 (rab600_23_28B7.3) (antibody, V domains shown) VH: QSVEESGGRLVTPGTPLTLTCTVSGFSLNSHYMIWVRQAPGKGLEYIGIITSSDYIYYARWAKGRFTISKTSSTTVDLKITSPTTEDTATYSCARYNYDDDGELFNLWGQGTLVTVSS VL: AVLTQTPSSVSAAVGGTVTLNCQSSQSIDANNDLAWYQQKPGQPPRLLIYLASKLASGVPSRFSGSGSGTQFTLTISGVQCDDAATYYCLGGYDDDADNTFGGGTEVVVK
2.92 | – | 0.184 | no binding | 0.195 | chimeric antibody clone 37H4.1 (rab600_23_37H4.1) (antibody, V domains shown) VH: QSVEESGGRLVTPGTPLTLTCTVSGFSLNSHYMIWVRQAPGKGLEYIGVITSSDYIYYARWAKGRFTISKTSSTTVDLKITSPTTEDTATYFCARYNYDDDGELFNLWGQGTLVTVSS VL: AVLTQTPSSVSAAVGGTVTLNCQSSQSIDANNDLAWYQQKPGQPPKLLIYLASTRASGVPSRFKGSGSGTQFTLTISGVQCYDAATYYCLGGYDDDADNTFGGGTEVVVK
3.16 | 0.1 | 0.098 | no binding | 0.093 | chimeric antibody clone 24 (rab600_23_24) (antibody, V domains shown) VH: QSLEESGGRLVTPGTPLTLTCTASGFSLNSYGVNWVRQAPGKGLEWIGGINTGGSTYYANWAKGRFTISKTSAMVDLKVTSPTTEDTATYVCARTSGNNVYNYFTLWGQGTLVTVSS VL: DIVMTQTPSSVSAAVGGTVTIYCQASQSIPSLLAWYQQKSGQPPKLLIYAPSTLASGVPSRFKASGSGTQFTLTISDLECADAATYYCQSYYYGDNTYNNIFGGGTEVVVK
27.8 | – | 0.156 | no binding | 0.081 | chimeric antibody clone 37D1.4 (rab600_23_37D1.4) (antibody, V domains shown) VH: QSLEESGGRLVTPGTPLTLTCTVSGFSLNSNGMNWVRQAPGKGLEWIGGINAGGSAYYANWAKGRFTISKTSTMVDLKITSPTTEDTATYFCAKTSGINVYNYLNLWGQGTLVTVSS VL: DIVMTQTPSPVSAAVGGTVTINCQASQSIYTALAWYQQKSGQPPKLLIYAASTLASGVPSRFKGSGSGTQFTLTISDLECADAATYYCQNYYYGDNTYNNTFGGGTEVVVK
24.6 | – | 0.157 | no binding | 0.0927 | chimeric antibody clone 8G11.5 (rab600_23_8G11.5) (antibody, V domains shown) VH: QSLEESGGRLVTPGTPLTLTCTVSGFSLNSNGMNWVRQAPGKGLEWIGGINAGGSAYYANWAKGRFTISKTSTMVDLKITSPTTEDTATYFCAKTSGINVYNYLNLWGQGTLVTVSS VL: DIVMTQTPSPVSAAVGGTVTINCQASQSIYTALAWYQQKSGQPPKLLIYAASTLASGVPSRFKGSGSGTQFTLTISDLECADAATYYCQNYYYGDNTYNNTFGGGTEVVVK
5.41 | 0.26 | 0.206 | no binding | 0.243 | chimeric antibody clone 23.71 (rab600_23_71) (antibody, V domains shown) VH: QSVEESGGRLVTPGTSLTLTCTVSGIDLSSYAMSWVRQAQGKGLEWIGIIGDSGSTWYASWAKGRFTISKTSTTVDLKITSPTPEDTATYFCAREPDYGGYAGYGYGDLWGQGTLVTVSS VL: IKMTQTLASVSAAVGGTGSISCQASEDIGNYVAWYQQKPGQPPKFLIYDTSHLASGVPSRFKGSRSGKEFTLTISGVQCDDAATYYCQHGYYTSDTDNTFGGGTEVVVK
– | – | 0.261 | no binding | 0.191 | chimeric antibody clone 11G12.1 (rab600_23_11G12.1) (antibody, V domains shown, also called rab600_23_HG12.1) VH: QSLEESGGDLVQPGASLTLTCTASGFSVNVNSYMCWVRQAPGKGLELIACIDTGSGGSTWYGSWAKGRFTISKSTNLNTVTLQMTSLTAADTATYFCARARNTYGYGDYVYGGAFDPWGPGTLVTVSS VL: DIVMTQTPASVEAAVGGTVTIKCQASQSISSTYLSWYQQKPGQRPKLLIYQASTLASGVPSRFKGSGSGTEFTLTISDLECADAATYYCQGGYFSDNGCYNAFGGGTEVVVK
2.98 | 0.091 | 0.147 | no binding | 0.197 | chimeric antibody clone 25.71 (rab600_25_71) (antibody, V domains shown) VH: QSVEESEGRLVTPGTPLTLTCTVSGIDLSSYAMGWVRQAPGMGLEWIGDISTSGNAYYATWVKGRFTISRTSTTVDLKMASLTTADTATYFCARADYGGETYAFDPWGPGTLVTVSS VL: DIVMTQTPASVEAAVGGTVTIKCQASQSISSYLNWYQQKPGQPPKLLIYSASTLASGVPSRFKGSGSGTQFTLTISGVECADAATYYCQQGYSDSNIDNVFGGGTEVVVK
2.78 | 0.147 | 0.144 | no binding | 0.151 | chimeric antibody clone 9 (rab600_25_9) (antibody, V domains shown) VH: QSVEESGGRLVTPGTPLTLTCTVSGFSLSTYDINWVRQAPGKGLEWIGIIYTGGITNFANWAKGRFTISKTSTTVDLKIASPTTEDTATYFCARGGYDSDGYVYPDAFDPWGPGTLVTVSS VL: ALVMTQTPASVEADVGGTVTINCQASESISNLLAWYQQKPGQRPKLLIYRASILTSGVSSRFKGSGSGTEYTLTINGVQCADAATYYCQHGYTGTNVQNVFGGGTEVVVK
3.25 | 0.1 | 0.126 | no binding | 0.148 | chimeric antibody clone 37 (rab600_25_37) (antibody, V domains shown) VH: QSVEESGGRLVTPGTPLILTCTVSGIDLSNYAMGWFRQAPGEGLEWIGSRRTDGITYYANWAEGRFTISRTSTTVDLEITSPTTEDTATYFCGRDVGGDGGWYFNLWGPGTLVTVSS VL: AGDMTQTPASVEVAVGGTVTIKCQASQSINIYLAWYQQKPGQPPKLLIYDASKLASGVPSRFSGSGSGTEFTLTISDLECADAATYYCQQGINNIGFGGGTEVVVK
– | – | 0.243 | no binding | 0.269 | chimeric antibody clone 8G10.7 (rab600_23_8G10.7) (antibody, V domains shown) VH: LEQSGGGAGGGLVKPGGSLELCCKASGFTLINSHWICWVRQAPGKGLEWIGCIFAGSAGSTYYATWVSGRFTLSRDIDQNTGCLQLNSLTAADTAMYYCARDQTNTAYDPFYLNLWGQGTLVTVSS VL: IEMTQTPFSVSAAVGGTVTINCQASENIYSSLAWYQQKPGQPPKLLIYAASDLASGVPSRFSGSGSGTEYTLTISGVQCADAATYYCQSAYSSGSDDNGFGGGTEVVVK

Source: patent US20220372154A1 (APEXIGEN, published 2022)
